These results are taken from IntAct's records for PubMed 23064147.

B1: Spindle assembly abnormal protein 5 (Caenorhabditis elegans), Q20010 (parent)
chain: MNNYDDLPCSIYFKKPTVQEFVDQPRVFEDSEVPAFQEVLQLPQERTKPPVPSTQPIVAAVEVAKKKSCLSAPKPRKEPPSHPALRQKTVAFGKTVNVSQTVEGTSRNSKKVLASTMSAQNTTTTEEQAAENWRDAMKTELQTIRTEIQEETARRQEELNAQNLVKMQELMSNFFQKITIPKQQAIEPVEKDKENFHESPRQSRQQKPASKIASAREVIKRDGVIPPEALTIIEQRLRSDPMFRQQIDNVLADAECDANRAAYSPPPPMSEVRYGSGVNPALMRETLTVERSIRYDNGLASIDSRQWTNERRDNRAPDSYRTYEPDQPCHSLYQKGQSISYYPSEAAGKTTARNNRTGYYVEDSSDHEEDVVVNKRGQNYHEQAVPETPAERERRIREKYARRK
partner: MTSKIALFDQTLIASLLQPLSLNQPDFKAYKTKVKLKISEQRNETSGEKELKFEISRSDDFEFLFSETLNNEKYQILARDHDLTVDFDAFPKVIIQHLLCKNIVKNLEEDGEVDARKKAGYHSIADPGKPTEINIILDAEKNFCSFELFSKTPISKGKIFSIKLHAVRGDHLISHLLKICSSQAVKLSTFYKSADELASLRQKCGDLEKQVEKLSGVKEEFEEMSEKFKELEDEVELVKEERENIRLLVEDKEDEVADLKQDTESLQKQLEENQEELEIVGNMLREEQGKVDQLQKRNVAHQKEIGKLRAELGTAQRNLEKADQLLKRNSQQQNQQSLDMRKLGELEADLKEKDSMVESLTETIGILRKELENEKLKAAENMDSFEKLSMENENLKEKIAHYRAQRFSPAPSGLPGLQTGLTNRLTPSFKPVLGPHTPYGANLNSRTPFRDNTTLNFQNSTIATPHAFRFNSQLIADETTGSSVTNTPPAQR
B2: Spindle assembly abnormal protein 6 (Caenorhabditis elegans), O62479 (parent)
chain: B1 partner
partner: B1 chain

In one test the parent is B1. The following applies: with sas6_caeel sas-6, O62479.
I396A: the “effect of a mutation on the interaction” value is “decreasing interaction”.

In a further test the parent is B1. The following applies: with sas6_caeel sas-6, O62479. The source holds these as a separate data set.
For the variant I396A, the “effect of a mutation on the interaction” value is on record as “disrupting interaction”.

In a further test the parent is B1. The settings on record: with sas6_caeel sas-6, O62479. This is another data set of the same source.
Turning to R397C, the “effect of a mutation on the interaction” value is “decreasing interaction”.

Variants of B1 are the subject of a further test. The following applies: with sas6_caeel sas-6, O62479. This is another data set of the same source.
Consider R397C, for which the “effect of a mutation on the interaction” value is “disrupting interaction”.

Variants of B1 are the subject of a further test. The following applies: with sas6_caeel sas-6, O62479. This is another data set of the same source.
With Y400A, the “effect of a mutation on the interaction” value was “decreasing interaction”.

Another test covers variants of B1. The settings on record: with sas6_caeel sas-6, O62479. The source holds these as a separate data set.
As to Y400A, the “effect of a mutation on the interaction” value was “disrupting interaction”.

The next test covers variants of B1. The settings on record: with sas6_caeel sas-6, O62479. This is another data set of the same source.
For R403A, the “effect of a mutation on the interaction” value was “decreasing interaction”.

The variants in a further test derive from B1. The following applies: with sas6_caeel sas-6, O62479. The source holds these as a separate data set.
R403A: the “effect of a mutation on the interaction” value is “disrupting interaction”.

Another test covers variants of B2. The following applies: with sas5_caeel sas-5, Q20010.
Turning to E278A, the “effect of a mutation on the interaction” value is reported as “decreasing interaction”.
As for E276A, the “effect of a mutation on the interaction” value is recorded as “decreasing interaction”.
For E275A, the “effect of a mutation on the interaction” value was “decreasing interaction”.

The variants in the next test derive from B2. The following applies: with sas5_caeel sas-5, Q20010. This is another data set of the same source.
Regarding E278A, the “effect of a mutation on the interaction” value is “disrupting interaction”.
On the same count and under the same terms, next, E276A: “disrupting interaction”; E275A: “disrupting interaction”.

In another test the parent is B2. The settings on record: with sas5_caeel sas-5, Q20010. This is another data set of the same source.
Take I279A: the “effect of a mutation on the interaction” value is reported as “decreasing interaction”.
With M283A, the “effect of a mutation on the interaction” value is “decreasing interaction”.

The variants in a further test derive from B2. The settings on record: with sas5_caeel sas-5, Q20010. This is another data set of the same source.
Regarding I279A, the “effect of a mutation on the interaction” value is “disrupting interaction”.
On the same count and under the same terms, the same measure for M283A: “disrupting interaction”.

A further test covers variants of B2. The following applies: with sas5_caeel sas-5, Q20010. This is another data set of the same source.
For E287A, the “effect of a mutation on the interaction” value is “decreasing interaction”.

The variants in the next test derive from B2. The settings on record: with sas5_caeel sas-5, Q20010. The source holds these as a separate data set.
As to E286A, the “effect of a mutation on the interaction” value is “decreasing interaction”.
